Measurements reported in article PMC3243729.

Target: EGFP-N-Talin1-C-mCherry (UniProt P26039)
Test: single-molecule photobleaching step counting and point spread function fit (TIRF microscopy); living CV1 cells with low expression of EGFP-Talin1-mCherry; EGFP spots more than 500 nm from other EGFPs; bleaching steps counted and the spot shape fitted to a single or a dimeric PSF
Settings: remark: other sources report otherwise

## EGFP-N-Talin1-C-mCherry, P26039 1-2541
  stoichiometry N: 2
